Columns and labels:
[1] = biological target: mutated SDHA protein with His Tag (mouse; Ile-Glu-Asp-Gly changed to Ile-Glu-Ala-Gly at the putative GzmB cleavage site), Q8K2B3
[2] = biological target: SDHA (endogenous, in mitochondria isolated from mouse IECs and in C57BL/6 primary colonic epithelial cells), Q8K2B3
SDHA (endogenous, in mitochondria isolated from mouse IECs and in C57BL/6 primary colonic epithelial cells), Q8K2B3, sequence (Q8K2B3 43-664): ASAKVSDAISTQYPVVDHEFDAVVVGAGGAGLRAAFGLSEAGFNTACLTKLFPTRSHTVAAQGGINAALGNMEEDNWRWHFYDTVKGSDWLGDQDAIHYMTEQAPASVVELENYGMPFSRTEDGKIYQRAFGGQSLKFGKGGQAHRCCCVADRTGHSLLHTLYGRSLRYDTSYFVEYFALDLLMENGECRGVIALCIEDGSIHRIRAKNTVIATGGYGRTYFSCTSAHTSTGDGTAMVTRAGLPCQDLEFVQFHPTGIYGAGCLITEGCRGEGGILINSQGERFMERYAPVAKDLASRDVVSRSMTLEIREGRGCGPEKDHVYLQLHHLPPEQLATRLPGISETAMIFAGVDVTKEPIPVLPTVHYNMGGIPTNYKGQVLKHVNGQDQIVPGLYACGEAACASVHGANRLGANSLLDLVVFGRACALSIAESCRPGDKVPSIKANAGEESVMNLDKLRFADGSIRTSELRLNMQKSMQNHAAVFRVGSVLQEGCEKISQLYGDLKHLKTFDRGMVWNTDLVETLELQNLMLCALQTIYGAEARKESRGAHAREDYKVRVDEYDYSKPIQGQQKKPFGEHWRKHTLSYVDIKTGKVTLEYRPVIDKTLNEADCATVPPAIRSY

mutated SDHA protein with His Tag (mouse; Ile-Glu-Asp-Gly changed to Ile-Glu-Ala-Gly at the putative GzmB cleavage site), Q8K2B3, sequence (Q8K2B3 whole entry, looked up, change not shown): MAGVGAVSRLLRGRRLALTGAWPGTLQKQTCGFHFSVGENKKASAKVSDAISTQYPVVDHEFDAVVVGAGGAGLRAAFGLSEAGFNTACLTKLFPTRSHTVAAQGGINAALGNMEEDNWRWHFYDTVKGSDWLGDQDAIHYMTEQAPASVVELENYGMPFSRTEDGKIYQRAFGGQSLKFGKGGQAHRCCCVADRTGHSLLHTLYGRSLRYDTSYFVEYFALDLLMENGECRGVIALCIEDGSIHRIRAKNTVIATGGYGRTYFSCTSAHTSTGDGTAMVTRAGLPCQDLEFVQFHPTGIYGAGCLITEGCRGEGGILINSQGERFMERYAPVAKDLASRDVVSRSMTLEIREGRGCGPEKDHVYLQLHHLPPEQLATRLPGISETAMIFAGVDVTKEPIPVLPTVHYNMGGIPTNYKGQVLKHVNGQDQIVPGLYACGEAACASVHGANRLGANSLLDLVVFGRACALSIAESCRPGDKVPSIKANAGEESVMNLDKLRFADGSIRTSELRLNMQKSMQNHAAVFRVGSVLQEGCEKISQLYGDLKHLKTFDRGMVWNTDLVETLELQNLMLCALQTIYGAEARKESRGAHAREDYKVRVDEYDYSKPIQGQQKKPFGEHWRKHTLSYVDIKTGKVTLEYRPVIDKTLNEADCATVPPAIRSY

B1: recombinant mouse Granzyme B (protein)
chain: IIGGHEVKPHSRPYMALLSIKDQQPEAICGGFLIREDFVLTAAHCEGSIINVTLGAHNIKEQEKTQQVIPMVKCIPHPDYNPKTFSNDIMLLKLKSKAKRTRAVRPLNLPRRNVNVKPGDVCYVAGWGRMAPMGKYSNTLQEVELTVQKDRECESYFKNRYNKTNQICAGDPKTKRASFRGDSGGPLVCKKVAAGIVSYGYKDGSPPRAFTKVSSFLSWIKKTMKSS
In the case of B1, the “proteolysis of SDHA by GzmB in PCECs treated with perforin, Granzyme B and Serpin 3A for 6 hours (immunoblot of SDHA)” value (Serpin 3A) is reported as “The presence of Serpin 3A prevented the proteolysis of SDHA by GzmB”, the “proteolysis of mutated SDHA protein (anti-His immunoblot, 6 hours)” value [1] is reported as “the mutation of the cleavage site prevented proteolysis of SDHA by GzmB” and the “proteolysis of SDHA in isolated IEC mitochondria (immunoblot of full length and cleaved SDHA)” value [2] is reported as “Treatment with GzmB caused proteolysis of SDHA with a reduction in SDHA with an increase in SDHA cleaved fragments”.
